Measured values: patent publication US20240076315A1, “KHL POLYPEPTIDE, AND USE THEREOF IN PREPARATION OF TABP-EIC CELL” (priority 2021, published 2024)
No end group written: not given here.

Assays:
PSMA = PSMA (Homo sapiens, UniProt Q04609); experiment: Phage display peptide library (Ph.D.-12) screening for peptide binding to PSMA; details: three rounds of panning, Ph.D.-12 phage display library
Protocol: The present disclosure uses the Ph.D.-12 phage display peptide library kit to screen peptide KHL that specifically binds to PSMA.
Random twelve peptide phage display library: 100 μL. 1.5×10^13 pfu/mL, stored in TBS solution containing 50% glycerol, complexity-2.7×10^9 transformants-28gIII sequencing primers: 5′-HOGATTGGGATTTGCTAACAAC-3′, 100 pmol, 1 pmol/μL-96 g III sequencing primer: 5′-HOCCTCATATAGTTAGCGTAGCGTAACG-3′, 100 pmol/1 pmol/μL; E. Coli ER2738 Host bacterium F′laclq Δ(lacZ) M15 proA+B+zzf:: Tn10 (TetR)/fhuA2 supE thi Δ(lac proAB) Δ(hsdMS mcrB) 5 (rk mk McrBC−): This strain is provided in the form of a bacterial culture containing 50% glycerol, non receptive cells, and stored at −70° C.; Streptavidin, freeze-dried powder 1.5 mg; Biotin: 10 mM 100 μL.
Depending on the number and types of target molecules that need to be simultaneously selected for library selection, the selection experiment is conducted on a single sterilized polystyrene culture dish, 12 or 24 well plates, and 96 well microplates. Each target molecule is coated with at least one plate (or well), and the amount given in the following method is the amount of the 60×15 mm culture dish, the content in parentheses is the amount of the plate, and the dosage of microplate is adjusted accordingly for other medium-sized wells. However, in each case, the number of added bacteriophages is the same: 1.5×10^11 virion. […]

[1] = target: T1, cell surface antigen PSMA (Homo sapiens, UniProt Q04609); experiment: Immunofluorescence detection of KHL peptide (FITC marker) on Lncap cell line; assay type: binding
T1 construct: endogenous in cells; host or cells: Lncap cells (PC3 cells as low-PSMA control)
Protocol: (§1) Immunofluorescence detection was performed on KHL peptides in Lncap cell lines with high PSMA expression and PC3 cell lines with low PSMA expression, using FITC as the fluorescent marker. The fluorescence detection of KHL peptide and Lncap cell line is shown in FIG. 1, and the fluorescence detection of KHL peptide and PC3 cell line is shown in FIG. 2.

[2] = system: PC3 cell lines with low PSMA expression; experiment: Immunofluorescence detection of KHL peptide (FITC marker) on PC3 cell line; assay type: binding; details: FIG. 2
Protocol: as §1

T1 sequence (Q04609 whole entry): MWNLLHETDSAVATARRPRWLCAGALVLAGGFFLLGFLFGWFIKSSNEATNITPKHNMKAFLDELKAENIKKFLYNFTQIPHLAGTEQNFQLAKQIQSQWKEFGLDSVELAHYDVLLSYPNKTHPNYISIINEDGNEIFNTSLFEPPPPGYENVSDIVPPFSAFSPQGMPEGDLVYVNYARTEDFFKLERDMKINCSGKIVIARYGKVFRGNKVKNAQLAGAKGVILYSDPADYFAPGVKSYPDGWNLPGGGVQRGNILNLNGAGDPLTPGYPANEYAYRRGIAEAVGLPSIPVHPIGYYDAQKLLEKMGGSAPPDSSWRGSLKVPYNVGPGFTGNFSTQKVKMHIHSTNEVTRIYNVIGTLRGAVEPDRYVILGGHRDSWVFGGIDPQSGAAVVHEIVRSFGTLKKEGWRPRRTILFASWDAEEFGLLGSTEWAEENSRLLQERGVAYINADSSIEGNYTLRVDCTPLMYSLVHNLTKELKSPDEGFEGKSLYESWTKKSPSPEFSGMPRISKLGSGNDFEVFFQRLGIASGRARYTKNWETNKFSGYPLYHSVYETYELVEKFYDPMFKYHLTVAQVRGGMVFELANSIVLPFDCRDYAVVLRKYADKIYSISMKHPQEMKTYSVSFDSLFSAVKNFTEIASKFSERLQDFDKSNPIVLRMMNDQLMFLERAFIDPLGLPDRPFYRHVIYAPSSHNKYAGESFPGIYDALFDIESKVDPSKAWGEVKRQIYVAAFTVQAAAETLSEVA
Chain of PSMA (Q04609 whole entry, species assumed): as the sequence (Q04609 whole entry) above

Sequence: KHLHYHSSVRYG (also: FITC label, attachment site not given here) [FITC used as the fluorescent marker in immunofluorescence]
- binding to PSMA found by peptide library screening (PSMA): specifically binding to PSMA
- specificity of binding of KHL to the cell surface antigen PSMA ([1]; Lncap (high PSMA) versus PC3 (low PSMA)): high specificity
- cell surface fluorescence labeled by KHL ([1]; Lncap cell lines with high PSMA expression, FITC, FIG. 1): fluorescence displayed by KHL binding to the cell surface antigen PSMA
- cell surface fluorescence labeled by KHL [2]: only staining of the nucleus
